The target of this test is RFP-tagged cargo selection complex (Vps35, Vps26, Vps29-RFP) (S. cerevisiae, UniProt P34110;P40335;P38759). Description: recruitment to giant unilamellar vesicles.
Sequence of RFP-tagged cargo selection complex (Vps35, Vps26, Vps29-RFP) (P34110 whole entry, chain 1 of 3): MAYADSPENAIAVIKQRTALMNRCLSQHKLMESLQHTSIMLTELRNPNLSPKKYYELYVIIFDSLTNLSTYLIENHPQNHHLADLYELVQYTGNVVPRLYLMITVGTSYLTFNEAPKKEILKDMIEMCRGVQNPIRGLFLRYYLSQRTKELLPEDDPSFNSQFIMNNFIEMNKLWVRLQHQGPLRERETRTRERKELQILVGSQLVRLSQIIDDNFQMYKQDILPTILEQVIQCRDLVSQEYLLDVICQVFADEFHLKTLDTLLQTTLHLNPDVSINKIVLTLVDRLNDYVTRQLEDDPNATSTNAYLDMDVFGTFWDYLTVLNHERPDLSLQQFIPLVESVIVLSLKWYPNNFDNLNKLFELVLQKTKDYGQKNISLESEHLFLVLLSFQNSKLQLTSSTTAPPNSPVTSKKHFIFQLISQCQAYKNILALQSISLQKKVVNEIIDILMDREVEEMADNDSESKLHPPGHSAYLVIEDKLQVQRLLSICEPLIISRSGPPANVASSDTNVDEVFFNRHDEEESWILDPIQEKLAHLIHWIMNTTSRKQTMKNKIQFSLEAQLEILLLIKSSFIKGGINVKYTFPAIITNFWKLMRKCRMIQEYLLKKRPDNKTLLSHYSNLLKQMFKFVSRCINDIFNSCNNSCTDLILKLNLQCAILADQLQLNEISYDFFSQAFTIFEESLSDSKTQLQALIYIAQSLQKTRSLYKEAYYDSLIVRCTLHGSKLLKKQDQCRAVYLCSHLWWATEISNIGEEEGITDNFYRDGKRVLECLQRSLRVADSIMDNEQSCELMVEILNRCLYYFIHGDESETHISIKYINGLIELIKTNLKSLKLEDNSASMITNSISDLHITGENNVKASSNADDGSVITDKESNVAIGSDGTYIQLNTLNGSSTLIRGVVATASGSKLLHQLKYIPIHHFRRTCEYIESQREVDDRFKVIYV
Sequence of RFP-tagged cargo selection complex (Vps35, Vps26, Vps29-RFP) (P40335 whole entry, chain 2 of 3): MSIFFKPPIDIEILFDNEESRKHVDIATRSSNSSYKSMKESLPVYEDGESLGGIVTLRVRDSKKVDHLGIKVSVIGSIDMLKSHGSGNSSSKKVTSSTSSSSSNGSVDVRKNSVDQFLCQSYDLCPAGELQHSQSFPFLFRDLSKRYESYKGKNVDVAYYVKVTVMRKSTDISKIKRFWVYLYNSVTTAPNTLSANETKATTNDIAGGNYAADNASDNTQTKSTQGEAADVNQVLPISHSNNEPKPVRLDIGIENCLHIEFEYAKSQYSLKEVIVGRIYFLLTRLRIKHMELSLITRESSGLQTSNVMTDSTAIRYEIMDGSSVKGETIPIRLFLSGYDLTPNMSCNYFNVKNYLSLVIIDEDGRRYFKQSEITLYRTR
Sequence of RFP-tagged cargo selection complex (Vps35, Vps26, Vps29-RFP) (P38759 whole entry, chain 3 of 3): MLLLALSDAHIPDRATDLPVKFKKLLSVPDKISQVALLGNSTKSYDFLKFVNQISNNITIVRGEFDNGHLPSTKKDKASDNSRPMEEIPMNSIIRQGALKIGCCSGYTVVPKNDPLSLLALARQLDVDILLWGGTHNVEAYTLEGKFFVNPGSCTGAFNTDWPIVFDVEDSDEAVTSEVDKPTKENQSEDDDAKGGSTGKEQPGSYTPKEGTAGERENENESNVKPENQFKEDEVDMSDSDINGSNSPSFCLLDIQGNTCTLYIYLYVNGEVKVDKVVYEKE

B1: GFP-tagged SNX-BAR complex (Vps5-Vps17 heterodimer with Vps17-GFP) (complex)
chain 1: MDYEDNLEAPVWDELNHEGDKTQSLVSNSIESIGQISTNEERKDNELLETTASFADKIDLDSAPEWKDPGLSVAGNPQLEEHDNSKADDLINSLAPEQDPIADLKNSTTQFIATRESGGALFTGNANSPLVFDDTIYDANTSPNTSKSISGRRSGKPRILFDSARAQRNSKRNHSLKAKRTTASDDTIKTPFTDPLKKAEKENEFVEEPLDDRNERRENNEGKFTASVEKNILEQVDRPLYNLPQTGANISSPAEVEENSEKFGKTKIGSKVPPTEKAVAFKVEVKDPVKVGELTSIHVEYTVISESSLLELKYAQVSRRYRDFRWLYRQLQNNHWGKVIPPPPEKQSVGSFKENFIENRRFQMESMLKKICQDPVLQKDKDFLLFLTSDDFSSESKKRAFLTGSGAINDSNDLSEVRISEIQLLGAEDAAEVLKNGGIDAESHKGFMSISFSSLPKYNEADEFFIEKKQKIDELEDNLKKLSKSLEMVDTSRNTLAASTEEFSSMVETLASLNVSEPNSELLNNFADVHKSIKSSLERSSLQETLTMGVMLDDYIRSLASVKAIFNQRSKLGYFLVVIENDMNKKHSQLGKLGQNIHSEKFREMRKEFQTLERRYNLTKKQWQAVGDKIKDEFQGFSTDKIREFRNGMEISLEAAIESQKECIELWETFYQTNL
chain 2: MTSAVPYDPYDDLDNNPFAEPQEEDSEPAATTTDGSSSMSEERVGTEQTAASVQDNGTANNIQNGLGEEGNATRSKTSNEHNENQQPSQPSERVILPERSDEKKKYTLLAKVTGLERFGSATGKKENPTIIFDCSTNLPTFRKQQYKNVKKSYEEFHQLFKYLNVAIQESFVPTLPSAYTTFGINSEEDRMKVTRNFQLWFNRLSQDPLIIRNEEVAFFIESDFNTYTPINKSKSLASGLKRKTLKQLAPPYDEITELAEFRPLVKSIYVVSQSLQEKLLRVSRNRKMMVQEENAFGQDFVNLDEHNKLYRRYGKILTAVGDIDSIIATMDMATLYDGLEWIVRDAYAVKEALTNRHFIMRNLVQAQQNSKAKQEQARRFRSRRDINPMKIDEALRQLKAAAKNEQVLTLKLQRITSNMIIERKQWISWYEEWIRSSIKEFTLRKIEYERKKLTLLERVRSDIRKADENGGLSRLGRHAVSNNNSDTSQTLKGDSWTGESNRKSQIPINKIAHTEFDDELFTEDDGYNSQDSDTTSLNARHAASLLGMSTK
Take B1: the binding result was “binds”.

B2: SNX-BAR complex without GFP tag (Vps5-Vps17 heterodimer) (complex)
chain 1: MDYEDNLEAPVWDELNHEGDKTQSLVSNSIESIGQISTNEERKDNELLETTASFADKIDLDSAPEWKDPGLSVAGNPQLEEHDNSKADDLINSLAPEQDPIADLKNSTTQFIATRESGGALFTGNANSPLVFDDTIYDANTSPNTSKSISGRRSGKPRILFDSARAQRNSKRNHSLKAKRTTASDDTIKTPFTDPLKKAEKENEFVEEPLDDRNERRENNEGKFTASVEKNILEQVDRPLYNLPQTGANISSPAEVEENSEKFGKTKIGSKVPPTEKAVAFKVEVKDPVKVGELTSIHVEYTVISESSLLELKYAQVSRRYRDFRWLYRQLQNNHWGKVIPPPPEKQSVGSFKENFIENRRFQMESMLKKICQDPVLQKDKDFLLFLTSDDFSSESKKRAFLTGSGAINDSNDLSEVRISEIQLLGAEDAAEVLKNGGIDAESHKGFMSISFSSLPKYNEADEFFIEKKQKIDELEDNLKKLSKSLEMVDTSRNTLAASTEEFSSMVETLASLNVSEPNSELLNNFADVHKSIKSSLERSSLQETLTMGVMLDDYIRSLASVKAIFNQRSKLGYFLVVIENDMNKKHSQLGKLGQNIHSEKFREMRKEFQTLERRYNLTKKQWQAVGDKIKDEFQGFSTDKIREFRNGMEISLEAAIESQKECIELWETFYQTNL
chain 2: MTSAVPYDPYDDLDNNPFAEPQEEDSEPAATTTDGSSSMSEERVGTEQTAASVQDNGTANNIQNGLGEEGNATRSKTSNEHNENQQPSQPSERVILPERSDEKKKYTLLAKVTGLERFGSATGKKENPTIIFDCSTNLPTFRKQQYKNVKKSYEEFHQLFKYLNVAIQESFVPTLPSAYTTFGINSEEDRMKVTRNFQLWFNRLSQDPLIIRNEEVAFFIESDFNTYTPINKSKSLASGLKRKTLKQLAPPYDEITELAEFRPLVKSIYVVSQSLQEKLLRVSRNRKMMVQEENAFGQDFVNLDEHNKLYRRYGKILTAVGDIDSIIATMDMATLYDGLEWIVRDAYAVKEALTNRHFIMRNLVQAQQNSKAKQEQARRFRSRRDINPMKIDEALRQLKAAAKNEQVLTLKLQRITSNMIIERKQWISWYEEWIRSSIKEFTLRKIEYERKKLTLLERVRSDIRKADENGGLSRLGRHAVSNNNSDTSQTLKGDSWTGESNRKSQIPINKIAHTEFDDELFTEDDGYNSQDSDTTSLNARHAASLLGMSTK
With B2, the binding result was “binds”.

B3: Snx3-mGFP (His-SUMO-Snx3-mGFP) (natural protein)
chain: MPREFKSFGSTEKSLLSKGHGEPSYSEIYAEPENFLEIEVHNPKTHIPNGMDSKGMFTDYEIICRTNLPSFHKRVSKVRRRYSDFEFFRKCLIKEISMLNHPKVMVPHLPGKILLSNRFSNEVIEERRQGLNTWMQSVAGHPLLQSGSKVLVRFIEAEKFVG
Take B3: the binding result is given as “binds”.

These data come from paper PMC6249844 (Molecular Biology of the Cell, 2018).
